Test system: MS2 coat protein
Assay: apparent KD of MS2 coat protein; designed switch direction (-1 OFF switch, 1 ON switch): -1; higher = weaker reporter binding
How it was run: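 Designed RNA switches sharing common flanks were transcribed on Illumina chips by stalled E. coli RNA polymerase. They were titrated with SNAP-549-labelled MS2 coat protein, from 0.7 or 1.5 nM doubling to 3 µM, in Tris-HCl pH 7.5 buffer with KCl, MgCl2, BSA, DTT, tRNA and Tween-20. Titrations ran without input, with 200 uM small-molecule ligand, or with an oligonucleotide input. The apparent KD of each design is the median over its clusters, after curve-fitting of normalised cluster fluorescence.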

[1] = Eterna round: R95, input ligand: microRNA oligo, concentration not stated
[2] = input ligand: microRNA oligo, concentration not stated
[3] = Eterna round: R95, input ligand: FMN 200 uM
[4] = Eterna round: R95, input ligand: none

AGCAUGUAAGGAUAUGCAACACGACGUUCAAUCGUCGUGCCGCAGAAGGUACAUGAGGAUCACCCAUGUGCUCC [Xesodied] (puzzle: Exclusion 4)
apparent KD of MS2 coat protein [1]: 75.4 nM

CCACGACAUGAGGAUCACCCAUGUGAGGAUAUGACCUGAAAAGCGUGAGCAGUUUGUAUCAGAAGGCGCGUGGG [salish99_ex1_r4_066] (Eterna round: R97, puzzle: Exclusion 1)
apparent KD of MS2 coat protein (input ligand: FMN 200 uM): 54.4 nM
apparent KD of MS2 coat protein (input ligand: none): 67.4 nM

CAGUACUGAGGAUAUACAUGAGGAUCACCCAUGUGUUCCAGCUAGGAAACUAGCAAAAGUAGAAGGCAGUACUG [Ex3: 828] (Eterna round: R96, puzzle: Exclusion 3)
apparent KD of MS2 coat protein (input ligand: FMN 200 uM): 646 nM
apparent KD of MS2 coat protein [2]: 22.1 nM
apparent KD of MS2 coat protein (input ligand: none): 25.9 nM

UUAUUAUAUGUAGGAUAUGCGUAUUAUUGUUAUGCAGAAGGACAUGAGGAUCACCCAUGUAUAUUAUUGUUAUAUAUUAUAUGU [Title] (Eterna round: R96, puzzle: Exclusion NG 1)
apparent KD of MS2 coat protein (input ligand: FMN 200 uM): 110 nM
apparent KD of MS2 coat protein [2]: 26.6 nM
apparent KD of MS2 coat protein (input ligand: none): 30.3 nM

GCGAAAGCAAACAAGUGAAACAUGAGGAUCACCCAUGUCCUCAUUUGCUCGUCUUAUAAGCUAUGCGAAAGCAUAGC [Sensor 3, v1 - 6] (puzzle: Sensor v3, turn-off variant 1)
apparent KD of MS2 coat protein [3]: 38 nM
apparent KD of MS2 coat protein [1]: 269 nM
apparent KD of MS2 coat protein [4]: 41.6 nM

CAAGCUUUGCGAGGAUAUGAUGGCCGAUAUGCCUCAGAAGGCGCAGAAACUUGAGGAUCACCCAAGUGAUGCAACGACGACCAU [Mutated MS2 EX1.12] (Eterna round: R96, puzzle: Exclusion NG 1)
apparent KD of MS2 coat protein (input ligand: FMN 200 uM): 27.1 nM
apparent KD of MS2 coat protein [2]: 10.7 nM
apparent KD of MS2 coat protein (input ligand: none): 15.7 nM

AAGAAACAUGAGGAUCACCCAUGUGAGGAUAUGAAAAAGAAAAGAAAAGAAAGAAGUAUCAGAAGGCACAAAGG [salish99-ex1_r3_023] (puzzle: Exclusion 1)
apparent KD of MS2 coat protein [3]: 57.6 nM
apparent KD of MS2 coat protein [1]: 38.6 nM
apparent KD of MS2 coat protein [4]: 62.8 nM

AAAAAAUACAUGAGGAUCACCCAUGUAGAGUGGGAAGAGAGAUAGGAUAUGAUGUGAGAAUCAUAUCAGAAGGAUCGAGACUCA [AK ExNG3-2.2] (Eterna round: R96, puzzle: Exclusion NG 3)
apparent KD of MS2 coat protein (input ligand: FMN 200 uM): 143 nM
apparent KD of MS2 coat protein [2]: 110 nM
apparent KD of MS2 coat protein (input ligand: none): 139 nM

AGUGUGUGGCAGGAUAUUCUAAUGAUUAGGAGGGAAGAAGGGUCUACAUGAGGAUCACCCAUGUAAGCGGUUGA [Ex6 #39] (Eterna round: R97, puzzle: Exclusion 6)
apparent KD of MS2 coat protein (input ligand: FMN 200 uM): 135 nM
apparent KD of MS2 coat protein (input ligand: none): 38.3 nM

UUUUUAUAUGAAGGAUAUACUUAACAUGAGGAUCACCCAUGUGGUGUUGUGAGUGAGUGAGUUUAGUAGAAGGUCAAUGAUUCU [JMF's solution 61] (Eterna round: R96, puzzle: Exclusion NG 2)
apparent KD of MS2 coat protein (input ligand: FMN 200 uM): 864 nM
apparent KD of MS2 coat protein [2]: 299 nM
apparent KD of MS2 coat protein (input ligand: none): 419 nM

CUCUUGUUAGGAUAUCAAACCGGCGGCGGAGCCGCCGGAAGUGAGAAGGGACAUGAGGAUCACCCAUGUAAGAA [Maorgees] (puzzle: Exclusion 4)
apparent KD of MS2 coat protein [1]: 56.3 nM

CUGAACCCGGUAGGAUAUAUUGUGGGCAAGCAUGGAACGACAUGAGGAUCACCCAUGUAAUUUAGGUAGAAGGGCCAAAAGAUU [Excl-NG2-LRO09] (Eterna round: R96, puzzle: Exclusion NG 2)
apparent KD of MS2 coat protein (input ligand: FMN 200 uM): 34.6 nM
apparent KD of MS2 coat protein [2]: 28.9 nM
apparent KD of MS2 coat protein (input ligand: none): 53.9 nM

UUGAAGUCAUCAGGAUAUAGUAUUAAAGACAUUUAUAUUUUCAAACAUGAGGAUCACCCAUGUCGCUAGAAGGGAUUAUAGAUU [JR_ExcNG2_Sub080] (Eterna round: R96, puzzle: Exclusion NG 2)
apparent KD of MS2 coat protein [2]: 36.6 nM

AGUCGAAAGACCAACAUGGACAUGAGGAUCACCCAUGUACAAGCCUUUUGCUCGUCACUAUCGUCAAAAGACGAUAG [Omei Mir Offv1 A1] (Eterna round: R97, puzzle: Sensor, turn-off variant 1)
apparent KD of MS2 coat protein (input ligand: FMN 200 uM): 34.5 nM
apparent KD of MS2 coat protein (input ligand: none): 32.8 nM

UGAGUGCUGCGAGGAUAUACAUGAGGAUCACCCAUGUUUAGGUGUGAGGCUUUGCCUCACACCAUGUAGAAGGCGCAGUACUCU [JL ENG2 1.07] (Eterna round: R96, puzzle: Exclusion NG 2)
apparent KD of MS2 coat protein (input ligand: FMN 200 uM): 16.8 nM
apparent KD of MS2 coat protein [2]: 8.96 nM
apparent KD of MS2 coat protein (input ligand: none): 12.8 nM

GGACUAGGAGGAUAUACAUGAGGAUCACCCAUGUGUUGAUAAAGUCUACACAAUGUUAGUAGAAGGCUUAGACC [Eternabot (L2) Solution 18] (Eterna round: R97, puzzle: Exclusion 3)
apparent KD of MS2 coat protein (input ligand: FMN 200 uM): 22.5 nM
apparent KD of MS2 coat protein (input ligand: none): 17.5 nM

UGUACGAUGCGUGCUGACAUGCGUCGUGCAGCAGGUGGAACAUGAGGAUCACCCAUGUCCUCAUUUGCUCGUCUUGU [SL-sv3-2.10 JL mod] (puzzle: Sensor v3, turn-off variant 2)
apparent KD of MS2 coat protein [3]: 54.7 nM
apparent KD of MS2 coat protein [1]: 140 nM
apparent KD of MS2 coat protein [4]: 52.3 nM

GUGUAGUGAGGAUAUACAUGAGGAUCACCCAUGUGAAUAAGAUAGAAUAAGAUAAAGUGUAGAAGGCACAGUGU [Excluse me!!! 3 - Jieux - Exclusion 3] (puzzle: Exclusion 3)
apparent KD of MS2 coat protein [3]: 39.5 nM
apparent KD of MS2 coat protein [1]: 35.7 nM
apparent KD of MS2 coat protein [4]: 41.9 nM

GUCGUGCAGCUUUGCUGUACGAGUACAUGAGGAUCACCCAUGUAGGAUAUGGUACGCUUUGCGUGCCAGAAGGACGUGCGUUAG [salish99_ExNG3_r04_001] (Eterna round: R96, puzzle: Exclusion NG 3)
apparent KD of MS2 coat protein (input ligand: FMN 200 uM): 53.3 nM
apparent KD of MS2 coat protein [2]: 35.2 nM
apparent KD of MS2 coat protein (input ligand: none): 39.3 nM

ACAUGAGGAUCACCCAUGUAAACAUAAUGGCUCAUGUAGAGUCAGGAUAUGCGUGGCGAACAAGCGCAGAAGGGACAAGACUGG [Deportation 25 - Jieux - Exclusion NG 3] (Eterna round: R96, puzzle: Exclusion NG 3)
apparent KD of MS2 coat protein (input ligand: FMN 200 uM): 30 nM
apparent KD of MS2 coat protein [2]: 19.6 nM
apparent KD of MS2 coat protein (input ligand: none): 27.2 nM

GACGUGUGAGGAUAUGCCGUGCCGGUCCGGAAGGUUCGGGUGCAGAAGGCACAUGAGGAUCACCCAUGUGUAAG [Excls4-VI] (puzzle: Exclusion 4)
apparent KD of MS2 coat protein [1]: 17.7 nM

ACCCAACAUGAGGAUCACCCAUGUCAGGAUAUCCAAGCGAAAGCAAAAGCGAAAGCAAGGAGAAGGGACAGAGG [ChP 04-04-2015 #6] (puzzle: Exclusion 1)
apparent KD of MS2 coat protein [3]: 308 nM
apparent KD of MS2 coat protein [1]: 90 nM
apparent KD of MS2 coat protein [4]: 180 nM

AGAAAUGCCCGUGACCACAAGCUUUUUGCUUGUCUUACUACAUGAGGAUCACCCAUGUAACAUGGGCUCCUGACAAU [Maleisar] (puzzle: Sensor v3, turn-off variant 2)
apparent KD of MS2 coat protein [3]: 14.7 nM
apparent KD of MS2 coat protein [1]: 9.6 nM
apparent KD of MS2 coat protein [4]: 12.5 nM

UUUAAGUAAGGAUAUGCGAGCCACGGAAAUAAAACGUGGAGGUAGAAGGUACAUGAGGAUCACCCAUGUAAAAC [Mod of Anonveat 23 - Jieux - Exclusion 4] (Eterna round: R97, puzzle: Exclusion 4)
apparent KD of MS2 coat protein (input ligand: FMN 200 uM): 21.8 nM
apparent KD of MS2 coat protein (input ligand: none): 23.1 nM

CGCAUGUAAGGAUAUUAGUAGUAGUCAGAAUAGACUAUUACUGAGAAGGUACAUGAGGAUCACCCAUGUCAGCG [Eli x4 4.17] (Eterna round: R97, puzzle: Exclusion 4)
apparent KD of MS2 coat protein (input ligand: FMN 200 uM): 361 nM
apparent KD of MS2 coat protein (input ligand: none): 56.4 nM

GGGCUGCGACGCAGCCAAACAAAACAUGAGGAUCACCCAUGUCAGGAUAUACCGAUGCAGCAUCUGUAGAAGGGACAGAUCCAA [Onlaorre] (Eterna round: R96, puzzle: Exclusion NG 3)
apparent KD of MS2 coat protein (input ligand: FMN 200 uM): 145 nM
apparent KD of MS2 coat protein [2]: 63.5 nM
apparent KD of MS2 coat protein (input ligand: none): 73.3 nM

UAUUAGCAAGCAAGAUCCUACAUGAGGAUCACCCAUGUGCUCGUCUUAAACUCAGAAUUACUGAGAGCUCGUCUUAU [Winner reversed engineered 24] (Eterna round: R97, puzzle: Sensor, turn-off variant 1)
apparent KD of MS2 coat protein (input ligand: FMN 200 uM): 443 nM
apparent KD of MS2 coat protein (input ligand: none): 515 nM

UACAUGAGGAUCACCCAUGUUUUGUCGUGUUUGGUACCCGUUUAGGAUAUCGUGUUAUUGGACCGCGAGAAGGAGAGUAUCAUU [Excl-NG3-LRO06] (Eterna round: R96, puzzle: Exclusion NG 3)
apparent KD of MS2 coat protein (input ligand: FMN 200 uM): 32.2 nM
apparent KD of MS2 coat protein [2]: 18.4 nM
apparent KD of MS2 coat protein (input ligand: none): 39.9 nM

AAGUUCAGAGGAUAUGCCCAGCUCGACAUGAGGAUCACCCAUGUAUCCACAGAACGUACGGCAGAAGGCUGCAAUA [Eternabot (Original) Solution 9] (Eterna round: R97, puzzle: Exclusion 5)
apparent KD of MS2 coat protein (input ligand: FMN 200 uM): 69.4 nM
apparent KD of MS2 coat protein (input ligand: none): 86 nM

CCCAGUUAUCUAGGAUAUUGUACAUGAGGAUCACCCAUGUAAUAAAUGAGGAUUUCGGGUGUCUACAAGAAGGAGAGGAUAGGC [Ostracism 16 - Jieux - Exclusion NG 2] (Eterna round: R96, puzzle: Exclusion NG 2)
apparent KD of MS2 coat protein [2]: 20.4 nM

CGGAGACAUGAGGAUCACCCAUGUGAGGAUAUGGCGUGCGCUACUAAAGGUGGUUGCUCCAGAAGGCGCGGUGU [Eternabot (L1) Solution 3] (Eterna round: R97, puzzle: Exclusion 1)
apparent KD of MS2 coat protein (input ligand: FMN 200 uM): 74.5 nM
apparent KD of MS2 coat protein (input ligand: none): 65.2 nM

UUAUUAAGUGUGAGGAUAUGCUGGUCCUUGGAUCAGCAGAAGGCACAUGAGGAUCACCCAUGUACAAUAUAUUA [Mat - Exclusion 4 - JL Mod - D30] (puzzle: Brourd's mod of Exclusion 4)
apparent KD of MS2 coat protein [1]: 38.7 nM

CCACGACAUGAGGAUCACCCAUGUGAGGAUAUGGCCUGAAAAGCGUGAGCUGAAUCAAUCAGAAGGCGCGUGGG [salish99_ex1_r4_059_4A's] (Eterna round: R97, puzzle: Exclusion 1)
apparent KD of MS2 coat protein (input ligand: FMN 200 uM): 109 nM
apparent KD of MS2 coat protein (input ligand: none): 42 nM
